Assay results taken from paper PMC3786598 (Microscopy and microanalysis : the official journal of …, 2012).

Biological target: the molecule itself
Assay: single-molecule stepwise photobleaching

B1: prestin-eGFP (natural protein, UniProt Q9JKQ2 1-744, looked up)
chain: MDHAEENEIPVATQKYHVERPIFSHPVLQERLHVKDKVSESIGDKLKQAFTCTPKKIRNIIYMFLPITKWLPAYKFKEYVLGDLVSGISTGVLQLPQGLAFAMLAAVPPVFGLYSSFYPVIMYCFFGTSRHISIGPFAVISLMIGGVAVRLVPDDIVIPGGVNATNGTEARDALRVKVAMSVTLLSGIIQFCLGVCRFGFVAIYLTEPLVRGFTTAAAVHVFTSMLKYLFGVKTKRYSGIFSVVYSTVAVLQNVKNLNVCSLGVGLMVFGLLLGGKEFNERFKEKLPAPIPLEFFAVVMGTGISAGFNLHESYSVDVVGTLPLGLLPPANPDTSLFHLVYVDAIAIAIVGFSVTISMAKTLANKHGYQVDGNQELIALGICNSIGSLFQTFSISCSLSRSLVQEGTGGKTQLAGCLASLMILLVILATGFLFESLPQAVLSAIVIVNLKGMFMQFSDLPFFWRTSKIELTIWLTTFVSSLFLGLDYGLITAVIIALLTVIYRTQSPSYKVLGQLPDTDVYIDIDAYEEVKEIPGIKIFQINAPIYYANSDLYSNALKRKTGVNPALIMGARRKAMRKYAKEVGNANIANAAVVKVDGEVDGENATKPEEEDDEVKYPPIVIKTTFPEELQRFMPQTENVHTIILDFTQVNFIDSVGVKTLAVMVKEYGDVGIYVYLAGCSPQVVNDLTRNRFFENPALKELLFHSIHDAVLGSHVREAMAEQEASAPPPQDDMEPNATPTTPEA
- stoichiometry N: 4
